By stoichiometry N is commonly meant the number of molecules, sites or subunits per partner or assembly.

The target in this assay is M. tuberculosis LamA (MmpS3, Rv2198c) fused to a 3X-FLAG tag at the carboxy terminus (M. tuberculosis). In words: SDS-PAGE with western blot.

As for “M. tuberculosis LamA (MmpS3, Rv2198c) fused to a 3X-FLAG tag at the carboxy terminus (natural protein)”, the stoichiometry N turned out to be 2.

For the origin of these results see publication PMC12421883.
